The text below walks through data of FireProtDB (doi:10.1016/j.ijbiomac.2008.12.016).

Values joined by “and” are separate entries in the source; they are usually repeats but may differ in a detail not shown here. Identical values can stand only once.

The conditions of the series: Oryctolagus cuniculus, pH 8, CD, Tris_HCl 10 mM; for denaturant midpoint (higher = more stable) / unfolding free energy: 25 °C, GdnHCl, reversible: Yes; for unfolding free energy: transition: 3; for Tm / change of melting temperature, mutant - wild type (higher = more stable): Thermal, reversible: No.

Chain of Creatine kinase M-type D122N, P00563 (P00563 whole entry D122N): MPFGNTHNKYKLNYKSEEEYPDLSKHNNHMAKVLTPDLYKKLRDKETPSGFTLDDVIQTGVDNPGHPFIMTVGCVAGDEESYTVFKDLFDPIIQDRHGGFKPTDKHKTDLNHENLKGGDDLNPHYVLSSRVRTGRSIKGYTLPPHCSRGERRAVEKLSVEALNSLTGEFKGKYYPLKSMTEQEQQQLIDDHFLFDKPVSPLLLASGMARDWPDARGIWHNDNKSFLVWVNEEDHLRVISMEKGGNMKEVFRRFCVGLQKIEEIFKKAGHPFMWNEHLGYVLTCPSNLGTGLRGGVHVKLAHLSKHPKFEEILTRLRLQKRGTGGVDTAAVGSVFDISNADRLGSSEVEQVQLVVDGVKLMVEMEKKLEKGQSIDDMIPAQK
Chain of Creatine kinase M-type D122A, P00563 (P00563 whole entry D122A): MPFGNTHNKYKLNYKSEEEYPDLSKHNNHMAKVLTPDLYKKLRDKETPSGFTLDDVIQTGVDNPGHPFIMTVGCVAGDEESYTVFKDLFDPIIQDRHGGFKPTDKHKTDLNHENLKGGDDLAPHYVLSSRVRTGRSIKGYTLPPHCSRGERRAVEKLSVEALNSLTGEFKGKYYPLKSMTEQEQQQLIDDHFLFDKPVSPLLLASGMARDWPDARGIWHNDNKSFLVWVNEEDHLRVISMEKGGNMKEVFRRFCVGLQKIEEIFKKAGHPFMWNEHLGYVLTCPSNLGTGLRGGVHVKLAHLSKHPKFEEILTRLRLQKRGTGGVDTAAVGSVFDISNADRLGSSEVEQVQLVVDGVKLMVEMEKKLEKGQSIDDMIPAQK
Chain of Creatine kinase M-type wild type, P00563 (P00563 whole entry): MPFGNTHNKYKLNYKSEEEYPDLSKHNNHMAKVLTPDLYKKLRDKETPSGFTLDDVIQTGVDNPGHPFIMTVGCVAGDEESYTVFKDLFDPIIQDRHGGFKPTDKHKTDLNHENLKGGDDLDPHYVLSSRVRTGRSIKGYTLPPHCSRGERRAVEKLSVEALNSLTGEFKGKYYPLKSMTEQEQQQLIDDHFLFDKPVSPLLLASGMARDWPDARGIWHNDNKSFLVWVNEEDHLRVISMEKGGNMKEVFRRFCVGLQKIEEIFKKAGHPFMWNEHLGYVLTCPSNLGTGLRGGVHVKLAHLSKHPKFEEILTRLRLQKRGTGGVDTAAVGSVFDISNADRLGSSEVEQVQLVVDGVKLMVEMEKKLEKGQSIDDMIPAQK

For orientation: Tm means the temperature at which the thermal transition is half complete. As for Creatine kinase M-type D122N, P00563, where the note is “structure 2CRK”, the “denaturant midpoint (higher = more stable)” value is 0.29 M; the unfolding free energy was 3.59 kcal/mol and 2.87 kcal/mol; the midpoint of thermal melting (Tm) was determined as 61.2 °C; the “change of melting temperature, mutant - wild type (higher = more stable)” value is 2.1 °C.
As to Creatine kinase M-type D122A, P00563, where the note is “structure 2CRK”, the “denaturant midpoint (higher = more stable)” value was 0.24 M; the unfolding free energy turned out to be 3.59 kcal/mol; the Tm was 59.1 °C; the “change of melting temperature, mutant - wild type (higher = more stable)” value was found to be 0 °C.
With “Creatine kinase M-type wild type, P00563”, the unfolding free energy was 3.59 kcal/mol and 4.06 kcal/mol; the Tm worked out at 59.1 °C.
